According to patent US20250326836A1 (SHIONOGI, published 2025):
Substitutions are numbered along the chain they refer to.

B1: m2F8 (antibody, V domains shown)
VH: QVQLQQSGAELVKPGASVKISCKASGYEFSYYWMNWVKQRPGKGLEWIGQIYPGDGDTNYNGKFKGKATLAAGKSSSTAYMQLSSLTSEDSAVYFCARSHGNYMIYWGQGTSVTVSS
VL: QIVLTQSPAIMSASLGERITLTCIASSSVSSSYLHWYQQKPGSSPKLWIYSTSNLASGVPTRFSGSGSGTSFSLTISTMEAEDAATYYCHQYHRSPRTFGGGTKLEIKR
B2: m4D7 (antibody, V domains shown)
VH: B1 VH with L70V, A71T, G73D, R98K, I105D
VL: B1 VL with I24T
B3: m24C4 (antibody, V domains shown)
VH: B1 VH with A71T, G73D, I105H
VL: B1 VL with I24T
B4: m26C7 (antibody, V domains shown)
VH: B1 VH with A71T, G73D, I105A
VL: B1 VL with I24T
B5: mIML1-2 (antibody, V domains shown)
VH: QVQLQQSGAELVKPGASVKIACKASGYEFNYYWMNWVKQRPGKGLEWIGQIYPGDGDNKYNGKFKGKATLTADKSSSTVYMQLNSLTSEDSAVYFCARTGSGRFAYWGQGTLVTVSA
VL: QIVLTQSPAIMSASPGEKVTMTCRASSSVSSSYLHWYQQKSGASPKLWIYSTSNLASGVPARFSGSGSGTSYSLTITSVEAEDVATYYCQQYSGFPLTFGSGTKLEIKR
B6: hIML1-2-OP1 (antibody, V domains shown)
VH: QVQLVQSGAEVKKPGASVKVSCKASGYEFNYYWMNWVRQAPGQGLEWMGQIYPGDGDNRYNGKFKGRVTMTRDTSTSTVYMELSSLRSEDTAVYYCARTGSGRFAYWGQGTLVTVSS
VL: DIQMTQSPSSLSASVGDRVTITCKASSSVSTRYLHWYQQKPGKAPKLLIYGTSNIASGVPSRFSGSGSGTDFTLTISSLQPEDVATYYCQQYTAFPLTFGQGTKVEIKR
B7: h2F8 (antibody, V domains shown)
VH: QVQLVQSGAEVKKPGASVKVSCKASGYEFSYYWMNWVRQAPGQGLEWMGQIYPGDGDTNYNGKFKGRVTMTRDTSTSTVYMELSSLRSEDTAVYYCARSHGNYMIYWGQGTTVTVSS
VL: EIVLTQSPGTLSLSPGERATLSCIASSSVSSSYLHWYQQKPGQAPRLLIHSTSNLASGIPERFSGSGSGPDFTLTISRLKPEDFAVYYCHQYHRSPRTFGQGTKVEIKR
B8: Nimacimab (BIRD ROCK BIO) (antibody, V domains shown)
VH: QVQLVQSGAEVKKPGSSVKVSCKASGYEFSYYWMNWVRQAPGQGLEWMGQIYPGDGETKYAQKFQGRVTITADKSTSTAYMELSSLRSEDTAVYYCARSHGNYLPYWGQGTLVTVSS
VL: EIVLTQSPATLSLSPGERATLSCRASQSVSSSYLHWYQQKPGQAPRLLIYSTSNLASGIPARFSGSGSGTDFTLTISRLEPEDFAVYYCHQYHRSPPTFGQGTKVEIK

Each binder was assayed against T1, human cannabinoid type 1 (CB1) receptor (human, UniProt P21554 1-472) (assay: cell-based or functional assay).
T1 sequence (P21554 whole entry): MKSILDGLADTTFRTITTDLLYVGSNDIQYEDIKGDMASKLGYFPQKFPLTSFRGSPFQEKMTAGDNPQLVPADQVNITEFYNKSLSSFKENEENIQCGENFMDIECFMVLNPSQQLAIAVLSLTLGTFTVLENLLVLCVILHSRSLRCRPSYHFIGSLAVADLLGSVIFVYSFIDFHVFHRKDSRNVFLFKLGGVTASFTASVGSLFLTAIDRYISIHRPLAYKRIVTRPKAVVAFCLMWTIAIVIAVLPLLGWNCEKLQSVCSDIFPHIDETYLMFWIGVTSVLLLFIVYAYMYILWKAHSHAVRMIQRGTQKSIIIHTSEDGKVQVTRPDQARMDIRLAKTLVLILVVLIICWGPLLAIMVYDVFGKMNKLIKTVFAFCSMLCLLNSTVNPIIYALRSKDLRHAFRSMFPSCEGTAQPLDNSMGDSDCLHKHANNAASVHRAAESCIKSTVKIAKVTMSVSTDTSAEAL

Binder	Ca^2+ influx assay IC50	cAMP assay IC50
B1	0.9 nM	4.9 nM
B2	1.29 nM	3.9 nM
B3	1.22 nM	5 nM
B4	1.85 nM	6.5 nM
B5	1.77 nM	5.9 nM

Biological target: T1, human cannabinoid type 1 (CB1) receptor
Assay: cell-based or functional assay
Remark: another data set of the same source

Binder	Ca^2+ influx assay IC50	cAMP assay IC50
B6	0.55 nM	8.5 nM
B7	2.03 nM	5.9 nM
B8	2.62 nM	28.6 nM
